Measurements taken from paper PMC6568194, “Molecular and Biochemical Characterization of a Type II Thioesterase From the Zoonotic Protozoan Parasite Cryptosporidium parvum” (Frontiers in Cellular and Infection Microbiology, 2019).

Substrate: CCCCCCCCCC(=O)SCCNC(=O)CCNC(=O)[C@H](O)C(C)(C)COP(=O)(O)OP(=O)(O)OC[C@H]1O[C@@H](n2cnc3c(N)ncnc32)[C@H](O)[C@@H]1OP(=O)(O)O
Experiment: purified protein
Type: biochemical, Cryptosporidium parvum
Details: 0.1 M HEPES pH 7.4, 50 mM KCl, 50 μM DTNB, MBP-tag background subtracted, temperature not given

B1: CpTEII (MBP-CpTEII) (Cryptosporidium parvum Iowa II) (protein)
chain: MSKSDFDKWFPSYSKVNSHLINLGSRNQPICRLLCIHGAGGSDQIFVKKDLNTGRESSNILLDYAQENGIELLVLQLPGRAGRSHEACYEDIATLINDFYPVFKSHFFGKANLTEYIELIPWVIVGHSMGGLIGFELLKRIKFEQLKDFSAKFGVTDQSGFENKIVKLLREKRIFPELFIIMSSFPPNIPEYDRPWRKNEELNDEEFKQECREWGINQNVFKKGIWEEFEKQLRCDFTMFDSFEMNLVDKIFYCSNQSLYNFMYPLGVDAQLWSASQDSKVTKDIMNKWKELLTSNGNSLDTREIDAQHNFLHDPKARKEWMQDLSTSLDKIILDLEYY
notes: entire ORF (339 aa, 39 kDa) from genomic DNA, N-terminal MBP tag kept (intact fusion assayed), C-terminal His-tag, pMAL-c2e-TEV, expressed in E. coli Rosetta 2
For B1, which Km is on record?
The Km was 172.2 µM.

And the kcat?
Its kcat is 0.0253 s⁻¹.
